Laboratory results reported in patent publication US20240101683A1 (published 2024).
Substitutions are numbered along the chain they refer to. One block for each binder: values may come before it.

Assays:
[1] = molecular target: T1, rhFGFR2IIIb-Fc (recombinant human FGFR2IIIb-Fc) (human, UniProt P21802-3 22-378, limits assumed); test: ELISA, coated rhFGFR2IIIb-Fc, anti-Fab HRP
T1 construct: Coated on the ELISA plate at 2 ug/mL; not shown: Fc part

[2] = molecular target: T2, Human FGFR2βIIIb (human, UniProt P21802-21 22-263, limits assumed); test: ELISA, coated antigen, anti-Fab HRP
T2 construct: Construct used in the ELISA (tag, Fc, limits) is not described

[3] = molecular target: T3, Murine FGFR2IIIb (murine, UniProt P21803-2 22-263, limits assumed); test: ELISA, coated antigen, anti-Fab HRP
T3 construct: Construct used in the ELISA is not described
T3 sequence (P21803 other isoform, or with tags, fused parts or gaps limits assumed): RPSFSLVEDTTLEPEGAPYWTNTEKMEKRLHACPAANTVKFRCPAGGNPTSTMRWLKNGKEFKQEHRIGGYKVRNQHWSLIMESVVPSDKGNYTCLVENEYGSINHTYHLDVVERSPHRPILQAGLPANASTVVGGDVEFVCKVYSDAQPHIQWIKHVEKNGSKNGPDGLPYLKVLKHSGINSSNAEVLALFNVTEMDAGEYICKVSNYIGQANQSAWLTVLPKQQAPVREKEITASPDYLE

T1 sequence (P21802 other isoform, or with tags, fused parts or gaps limits assumed): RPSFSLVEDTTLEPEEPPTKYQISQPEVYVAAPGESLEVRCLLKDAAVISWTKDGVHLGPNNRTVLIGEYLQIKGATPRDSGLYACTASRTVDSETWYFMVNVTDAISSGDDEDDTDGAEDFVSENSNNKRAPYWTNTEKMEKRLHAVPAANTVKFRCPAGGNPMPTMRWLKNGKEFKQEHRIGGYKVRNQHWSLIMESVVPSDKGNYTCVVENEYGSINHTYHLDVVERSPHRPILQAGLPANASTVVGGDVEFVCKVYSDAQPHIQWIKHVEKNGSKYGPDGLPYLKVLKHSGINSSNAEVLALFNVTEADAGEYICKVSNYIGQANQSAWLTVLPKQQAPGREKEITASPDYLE
T2 sequence (P21802 other isoform, or with tags, fused parts or gaps limits assumed): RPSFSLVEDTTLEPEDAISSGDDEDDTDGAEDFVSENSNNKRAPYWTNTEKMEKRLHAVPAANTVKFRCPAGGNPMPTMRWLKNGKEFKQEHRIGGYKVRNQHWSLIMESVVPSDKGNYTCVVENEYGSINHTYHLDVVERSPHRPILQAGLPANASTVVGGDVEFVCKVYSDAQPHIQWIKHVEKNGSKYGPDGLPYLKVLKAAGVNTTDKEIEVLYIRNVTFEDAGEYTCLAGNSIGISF

EC50 [1]: 352 pM
EC50 [2]: 162 pM
EC50 [3]: 308 pM
B1: FWB1904 (antibody, V domains shown)
VH: QVQLVQSGAEVKKPGSSVKVSCKASGYIFTSYNVHWVRQAPGQGLEWIGSIYPDNGDTSYNQNFRGRATITADKSTSTAYMELSSLRSEDTAVYYCARGDFAYWGQGTLVTVSS
VL: DIQMTQSPSSLSASVGDRVTITCKASNGISNDIAWYQQKPGKAPKLLIYSASYRYSGVPSRFSGSGSGTDFTFTISSLQPEDIATYYCQQHSTTPYTFGQGTKLEIK

EC50 [1]: 1060 pM
EC50 [2]: 262 pM
EC50 [3]: 5900 pM
B2: FWB1907 (antibody, V domains shown)
VH: B1 VH with H35N, T58S, Q62N, F64Y, R65K
VL: B1 VL with K24R

EC50 [1]: 281 pM
EC50 [2]: 126 pM
EC50 [3]: 225 pM
B3: FWB1908 (antibody, V domains shown)
VH: B1 VH with S31T, T58S, S59T, R65K
VL: B1 VL with A25G, N27Q, I29V, I33V, S56T

EC50 [1]: 724 pM
EC50 [2]: 207 pM
EC50 [3]: 293 pM
B4: FWB1912 (antibody, V domains shown)
VH: B1 VH with T58S, F64Y, R65K, F101Y
VL: B1 VL with I29V

EC50 [1]: 1680 pM
B5: FWB1923 (antibody, V domains shown)
VH: B1 VH with T58S, S59T, N61D, Q62E, N63D, R65K
VL: B1 VL with A25V, N27Q, I29V, I33A, A34V

EC50 [1]: 1880 pM
B6: FWB1924 (antibody, V domains shown)
VH: B1 VH with I51L, N61D, Q62E, N63D, F64Y, R65K
VL: B1 VL with A25V, N27Q, I29V, I33A, A34V

EC50 [1]: 298 pM
EC50 [2]: 173 pM
EC50 [3]: 262 pM
B7: FWB1905 (antibody, V domains shown)
VH: B1 VH with T58S, F64Y, R65K
VL: B1 VL with I29V

EC50 [1]: 903 pM
EC50 [2]: 196 pM
EC50 [3]: 296 pM
B8: FWB1913 (antibody, V domains shown)
VH: B1 VH with T58S, F64Y, R65K, F101Y
VL: B1 VL with I29V, T97S

EC50 [1]: 1010 pM
EC50 [2]: 203 pM
EC50 [3]: 250 pM
B9: FWB1914 (antibody, V domains shown)
VH: B1 VH with T58S, Q62N, F64Y, R65K
VL: DIQMTQSPSSLSASVGDRVTITCKASNGVSNDIAWYQQKPGKAPKLLIYSASYRYSGVPSRFSGSGSGTDFTFTISSLQPEDIATYYCQQHSTTPYTFGQGTKLEIKR

EC50 [1]: 324 pM
EC50 [2]: 167 pM
EC50 [3]: 289 pM
B10: FWB1906 (antibody, V domains shown)
VH: B1 VH with T58S, F64Y
VL: B1 VL

EC50 [1]: 697 pM
EC50 [2]: 246 pM
EC50 [3]: 338 pM
B11: FWB1911 (antibody, V domains shown)
VH: B1 VH with T58S, F64Y, R65K
VL: B1 VL with I29V, T97S

EC50 [1]: 279 pM
EC50 [2]: 210 pM
EC50 [3]: 296 pM
B12: FWB1910 (antibody, V domains shown)
VH: B1 VH with S31T, N61D, Q62E, N63D, R65K
VL: B1 VL with A25V, N27Q, I29V, I33A, A34V, S56T

EC50 [1]: 1210 pM
EC50 [2]: 153 pM
EC50 [3]: 274 pM
B13: FWB1920 (antibody, V domains shown)
VH: B1 VH with V34I, T58S, F64Y
VL: B1 VL with A25G, I29V

EC50 [1]: 643 pM
EC50 [2]: 173 pM
EC50 [3]: 90.8 pM
B14: FWB1925 (antibody, V domains shown)
VH: B1 VH with T58S, S59T, N61D, Q62E, N63D, F64Y
VL: B1 VL with A25G

EC50 [1]: 620 pM
EC50 [2]: 176 pM
EC50 [3]: 260 pM
B15: FWB1921 (antibody, V domains shown)
VH: B1 VH with T58S, S59T, F64Y
VL: B1 VL with A25G, I29V

EC50 [1]: 626 pM
EC50 [2]: 135 pM
EC50 [3]: 270 pM
B16: FWB1918 (antibody, V domains shown)
VH: B1 VH with T58S
VL: B1 VL with A25G

EC50 [1]: 877 pM
EC50 [2]: 185 pM
EC50 [3]: 273 pM
B17: FWB1915 (antibody, V domains shown)
VH: B1 VH with T58S, N61D, Q62E, N63D, F64Y, R65K
VL: B1 VL with I29V

EC50 [1]: 656 pM
EC50 [2]: 215 pM
EC50 [3]: 139 pM
B18: FWB1922 (antibody, V domains shown)
VH: B1 VH with T58S, S59T, F64Y
VL: B1 VL with A25G

EC50 [1]: 582 pM
EC50 [2]: 143 pM
EC50 [3]: 290 pM
B19: FWB1916 (antibody, V domains shown)
VH: B1 VH with T58S, F64Y, R65K
VL: B1 VL

EC50 [1]: 879 pM
EC50 [2]: 149 pM
EC50 [3]: 314 pM
B20: FWB1919 (antibody, V domains shown)
VH: B1 VH with T58S, F64Y
VL: B1 VL with K24R, A25G
